Experiments:
[1] = molecular target: precursor (proFIX) of FIX alone produced in the presence of PACE-SOL (BeneFIX®) (UniProt P00740)
[2] = tested on: proFIX-Fc (FIX-Fc retaining the FIX propeptide; dimer or monomer form not given)

Sequence of precursor (proFIX) of FIX alone produced in the presence of PACE-SOL (BeneFIX®) (P00740 whole entry, looked up): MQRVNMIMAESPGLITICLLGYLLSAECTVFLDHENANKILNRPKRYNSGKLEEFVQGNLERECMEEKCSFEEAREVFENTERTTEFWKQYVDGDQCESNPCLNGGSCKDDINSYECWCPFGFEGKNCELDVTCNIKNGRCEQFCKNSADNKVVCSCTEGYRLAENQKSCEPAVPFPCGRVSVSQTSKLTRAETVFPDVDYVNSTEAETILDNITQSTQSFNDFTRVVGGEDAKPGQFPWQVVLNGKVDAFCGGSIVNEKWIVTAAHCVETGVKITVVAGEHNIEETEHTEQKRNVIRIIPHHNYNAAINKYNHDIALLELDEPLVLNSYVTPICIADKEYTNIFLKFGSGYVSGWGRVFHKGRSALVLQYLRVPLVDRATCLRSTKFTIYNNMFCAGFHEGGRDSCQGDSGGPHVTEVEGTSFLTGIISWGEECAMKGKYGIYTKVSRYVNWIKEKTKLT

## PACE-SOL (soluble form of human PACE, amino acids 1-715)
[1]
  peptide mapping (tryptic digest, LC/MS) for the propeptide indicator peptide (PIP): FIX alone produced in the presence of PACE-SOL (BeneFIX®) appeared identical to FIX-Fc monomer produced with PC5 (FIG. 13), displaying no detectable PIP
[2]
  Propeptide Processing (Western blotting), CHO, transient transfection: processes
